{
  "source": "patent US20220332804A1",
  "about": "(CSL INNOVATION, published 2022)",
  "binders": {"B1": {"name": "RF16-242 (antibody, human IgG4 S228P, lambda, V domains shown)", "VH": "EVQLLQSGAEVKKPGESLKISCKGSGYSFTSYWIGWVRQMPGKGLEWMGIIYPGDSDTRYSPSFQGQVTISADKSISTAYLQWSSLKASDTAMYYCARRGHYGDYFDYWGQGTLVTVSS", "VL": "SYELTQPPSVSVSPGQTARITCSGDALPKKYAYWYHQKSGQAPVLVIYEDRRRPSEIPERFSGSSSGTMATLTITGAQVEDEGVYFCYSRDRAGNQRVFGGGTQLTVLG", "notes": "pH-dependent anti-C2 antibody from a phage display library"}},
  "experiment_in_all_cases": "SPR, antibody captured, C2 as analyte;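 further: biacore at 37 °C, anti-C2 mAbs held by immobilised goat anti-human IgG, C2 alanine or serine mutants injected, double-referenced sensorgrams fitted to a 1:1 kinetic or steady-state model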",
  "key": {"human C2 T442A": {"target": "T1, human C2 T442A (human, UniProt P06681 21-752)", "T1 sequence": "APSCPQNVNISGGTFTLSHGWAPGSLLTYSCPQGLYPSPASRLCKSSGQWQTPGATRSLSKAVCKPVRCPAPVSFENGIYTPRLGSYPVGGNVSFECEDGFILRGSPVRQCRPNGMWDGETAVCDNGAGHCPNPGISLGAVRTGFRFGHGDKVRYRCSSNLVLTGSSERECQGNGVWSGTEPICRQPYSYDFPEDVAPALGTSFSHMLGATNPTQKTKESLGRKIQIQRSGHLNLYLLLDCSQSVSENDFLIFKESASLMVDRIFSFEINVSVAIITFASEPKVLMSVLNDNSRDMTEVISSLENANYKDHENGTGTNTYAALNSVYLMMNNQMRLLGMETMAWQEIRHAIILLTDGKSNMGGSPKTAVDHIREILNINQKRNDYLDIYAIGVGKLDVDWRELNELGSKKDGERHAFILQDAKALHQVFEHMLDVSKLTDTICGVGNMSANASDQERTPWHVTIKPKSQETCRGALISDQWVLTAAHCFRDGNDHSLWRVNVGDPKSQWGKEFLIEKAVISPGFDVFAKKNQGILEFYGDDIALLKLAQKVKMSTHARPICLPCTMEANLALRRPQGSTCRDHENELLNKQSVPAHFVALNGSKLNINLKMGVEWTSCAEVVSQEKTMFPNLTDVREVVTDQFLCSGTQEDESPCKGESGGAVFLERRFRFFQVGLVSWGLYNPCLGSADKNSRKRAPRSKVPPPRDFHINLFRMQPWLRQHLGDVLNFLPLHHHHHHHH"}, "human C2 K443A": {"target": "T2, human C2 K443A (human, UniProt P06681 21-752)", "T2 sequence": "T1 sequence with A422T, K423A"}, "human C2 V455A": {"target": "T3, human C2 V455A (human, UniProt P06681 21-752)", "T3 sequence": "T1 sequence with A422T, V435A"}, "human C2 G677A": {"target": "T4, human C2 G677A (human, UniProt P06681 21-752)", "T4 sequence": "T1 sequence with A422T, G657A"}},
  "note": "Substitutions are numbered along the chain they refer to.",
  "data": [
    {"binder": "B1", "values": [
      {"measurement": "Kd", "setting": "human C2 T442A", "value": 18, "unit": "nM"},
      {"measurement": "binding result", "setting": "human C2 K443A", "value": "no binding"},
      {"measurement": "Kd", "setting": "human C2 V455A", "value": 5.9, "unit": "nM"},
      {"measurement": "Kd", "setting": "human C2 G677A", "value": 6.8, "unit": "nM"}
    ]}
  ]
}
